In patent publication US11578136B2, “Compositions and methods for treating cancer” (INNATE PHARMA, priority 2017, dated 2023):

Key:
cell-membrane bound CD39 = molecular target: T1, cell-membrane bound CD39 (Homo sapiens, UniProt P49961); assay: Inhibition of the enzymatic activity of cellular CD39 (cells not specified); format: cell-based
T1 sequence (P49961 1-510): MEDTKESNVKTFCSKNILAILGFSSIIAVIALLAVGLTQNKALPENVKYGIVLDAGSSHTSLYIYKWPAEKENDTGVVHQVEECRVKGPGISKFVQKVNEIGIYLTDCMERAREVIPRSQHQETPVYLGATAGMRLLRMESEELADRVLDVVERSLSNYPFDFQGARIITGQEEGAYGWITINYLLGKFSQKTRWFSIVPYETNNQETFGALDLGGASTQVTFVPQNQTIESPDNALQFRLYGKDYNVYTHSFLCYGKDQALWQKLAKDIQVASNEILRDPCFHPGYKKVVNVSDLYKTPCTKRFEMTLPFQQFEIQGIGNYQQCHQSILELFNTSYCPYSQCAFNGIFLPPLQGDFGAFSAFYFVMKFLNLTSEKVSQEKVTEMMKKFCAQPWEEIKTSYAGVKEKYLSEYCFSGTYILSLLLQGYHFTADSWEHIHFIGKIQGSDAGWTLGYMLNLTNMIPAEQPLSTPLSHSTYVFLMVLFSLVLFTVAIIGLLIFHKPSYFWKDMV
Protocol: (§1) The inhibition of the CD39 enzymatic activity in CD39-expressing cells by antibodies was evaluated using Cell Titer Glo™ (Promega, reference G7571) that allows assessment of ATP hydrolysis through use of a reagent that generates a luminescent signal proportional to the amount of ATP present. The assay was thus designed to permit assessment of the inhibition of ATP hydrolyzed by CD39 in the cell culture supernatant. Briefly, 5×10^4 Ramos human lymphoma cells, 5×10^3 human CD39-, cynomolgus CD39- and mouse CD39-expressing CHO cells, were incubated 1 hour at 37° C. with anti-CD39 antibodies from 30 μg/ml to […]. Cells were then incubated with 20 μM ATP for 1 additional hour at 37° C. Plates were centrifuged for 2 min at 400 g and 50 μl cell supernatant are transferred in a luminescence microplate (white wells). 50 μl CellTiter-Glo® Reagent (CTG) was added to the supernatant and emitted light was quantified after a 5 min incubation in the dark using a Enspire™ luminometer. Anti-CD39 antibody efficacy was determined by comparing emitted light in presence of antibody with ATP alone (maximal light emission) and ATP together with cells (minimal light emission).
The two antibodies that have been reported to inhibit the ATPase activity of CD39 in cellular assays (BY40 and BY12) were assessed to determine whether are able to inhibit the ATPase activity of recombinant soluble CD39 protein. […]

allogenic CD4 T cells = assay: Mixed lymphocytes reaction (MLR) with ATP-activated DC; format: cell-based, human; conditions: MoDC activated with ATP plus antibody; 5 days
Protocol: Briefly, human monocytes were purified from human healthy blood and differentiated into MoDC in presence of GM-CSF and IL-4 during 6 days. Then MoDC were activated in presence of ATP (Sigma, 0.25-1 mM) during 24 hours and DC activation were assessed by analyzing CD80, CD83 and HLA-DR expression by flow cytometry. In some cases, MoDC were preincubated during 1 hours in presence of CD39 inhibitor: […] (Tocris, 250 μM), CD73 inhibitor: APCP (Tocris 50 μM), anti-CD39 blocking antibody I-394 or BY40 (for BY40 see WO2009/095478), or anti-CD73 blocking antibodies. LPS (Invivogen, 10 ng/ml) was used as positive control. To assess resulting effect of ATP-mediated DC activation on CD4 T cells activation, ATP-activated DC were washed and then incubated with allogenic CD4 T cells (ratio 1 MoDC/4 T cells) for a mixed lymphocytes reaction (MLR) during 5 days. T cells activation and proliferation were analyzed through CD25 expression and Cell Trace Violet dilution by flow cytometry (FIG. 8).

[1] = test system: cynomolgus CD39-expressing CHO cells (CHO-cyCD39); assay: Inhibition of the enzymatic activity of cellular CD39 in CHO-cyCD39; format: cell-based, cynomolgus (Macaca fascicularis); conditions: result in words
Protocol: as §1
The inhibition by antibody I-394 of the ATPase activity of CD39 in CD39-expressing cells was evaluated using the assay used for inhibition of the enzymatic activity of cellular CD39 as described above (Methods).

[2] = molecular target: T2, human Ramos lymphoma cells (CD39) (Homo sapiens, UniProt P49961); assay: Antibody titration on Ramos cells by flow cytometry; format: binding; conditions: result in words
T2 construct: host or cells: Ramos human lymphoma cells
T2 sequence (P49961 1-510): T1 sequence (P49961 1-510)
Protocol: (§2) Antibody I-394 was tested in two repeated experiments for binding to CHO cells expressing human CD39, CHO cells expressing cynomolgus (Macaca fascicularis) CD39, CHO cells expressing murine CD39, and human Ramos lymphoma cells (ATCC™, reference CRL-1596). Cells were incubated with various concentration of unlabeled anti-CD39 antibody from 30 μg/ml to 5×10^−4 μg/ml, for 30 minutes at 4° C. After washes, cells were incubated with Goat anti-mouse H+L labeled secondary antibody for 30 min at 4° C.

[3] = molecular target: T3, Human CD39-L4 (NTPDase5, ENTPD5) (Homo sapiens, UniProt O75356); assay: ELISA titration on CD39-L4; format: binding; conditions: result in words
T3 sequence (O75356 25-428): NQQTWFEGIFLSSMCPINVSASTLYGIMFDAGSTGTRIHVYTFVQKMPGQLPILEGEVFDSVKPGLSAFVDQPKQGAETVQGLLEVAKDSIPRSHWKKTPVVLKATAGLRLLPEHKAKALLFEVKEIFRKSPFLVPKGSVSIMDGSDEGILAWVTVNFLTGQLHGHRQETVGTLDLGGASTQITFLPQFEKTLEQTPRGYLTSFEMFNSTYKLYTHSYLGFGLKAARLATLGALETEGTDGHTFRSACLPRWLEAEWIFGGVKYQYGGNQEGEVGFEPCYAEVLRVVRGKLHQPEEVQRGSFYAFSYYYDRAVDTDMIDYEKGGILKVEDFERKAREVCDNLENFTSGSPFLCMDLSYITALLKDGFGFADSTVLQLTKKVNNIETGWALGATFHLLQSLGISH
Protocol: Antibody I-394 was tested for binding to recombinant human CD39 isoforms (Rec-huCD39 isoforms) having amino acid sequences shown below were coated in 96-well plate in PBS 1× at 500 ng/ml or 1 μg/ml at 4° C. overnight. Wells were washed in TBS Tween 20, and further saturated 2H at RT in TBS Blocking buffer. Dose range concentration of primary antibody was incubated in TBS blocking buffer for 2 h at RT. Wells were washed in TBS Tween 20. […] Optical density was measured on Enspire™ at OD=450.

[4] = molecular target: T4, CHO cells expressing human CD39 (Homo sapiens, UniProt P49961); assay: Antibody titration on CHO-huCD39 by flow cytometry; format: binding; conditions: result in words
T4 construct: expressed in transfected cells; host or cells: CHO cells
T4 sequence (P49961 1-510): T1 sequence (P49961 1-510)
Protocol: as §2

potency and maximal inhibition of cellular CD39 compared to BY40 (FIG. 2A) (cell-membrane bound CD39; compared to BY40): greater potency and maximal inhibition
inhibition of ATPase activity of CD39 protein in cells / cell-membrane bound CD39 (cell-membrane bound CD39; result in words): inhibit
binding to Ramos lymphoma cells [2]: bound
binding to CD39-L4 in ELISA [3]: not
binding to cells expressing human CD39 (CHO-huCD39) [4]: bound
Substance: I-394: anti-CD39 antibody, VH SEQ ID NO: 6, VL SEQ ID NO: 7; human IgG1 Fc with L234A/L235E/G237A/A330S/P331S
T cells proliferation and activation in MLR (CD25 expression, Cell Trace Violet dilution) (allogenic CD4 T cells): higher T cells proliferation and activation
blocking CD39 enzymatic activity in CHO-cyCD39 [1]: blocks
